Consider 52 molecules from patent publication US20250011363A1, “OPTIMIZED SHORTENED PEPTIDE THAT BINDS TO ACETYLCHOLINE RECEPTOR, AND USE THEREOF” (SKINMED CO., LTD., priority 2021, published 2025).

For the assay, the target named is acetylcholine receptor. The experiment in a line: SPR, peptide at 10 uM.

For the molecule KCCNKK [6mer-2-1173], the Binding affinity is 38 RU.
With RITVKK [6mer-2-1160] the figure was 23 RU.
The figure for REWGRK [6mer-2-1146] is 32 RU; for KMSERR [6mer-2-1162] it is 34 RU; for KAAEKK [6mer-2-1127] it is 42 RU.
With RCEPRK [6mer-2-1174] the figure was 21 RU; with RPWERR [6mer-2-1132], 32 RU; with KMKPKK [6mer-2-1168], 41 RU.
Regarding KICERK [6mer-2-1169], the Binding affinity turned out to be 21 RU.
With RKTWRK [6mer-2-1124] the figure was 39 RU.
With RNTNRK [6mer-2-1155] the figure was 25 RU; with RDNIRK [6mer-2-1158], 37 RU; with KFTIRR [6mer-2-1170], 25 RU.
With KNCMRK [6mer-2-1128] the figure was 36 RU; with RYSKRR [6mer-2-1175], 34 RU.
The molecule RYEARR [6mer-2-1154] registered a Binding affinity of 30 RU.
The figure for KHKPKR [6mer-2-1153] is 27 RU; for KCHFKK [6mer-2-1163] it is 37 RU.
The figure for KACIKK [6mer-2-1143] is 42 RU; for RIKNRR [6mer-2-1145] it is 23 RU.
With KMPARR [6mer-2-1171] the figure was 40 RU; with RHSFKK [6mer-2-1161], 27 RU.
Molecule KAKAKK [6mer-2-1139] showed a Binding affinity of 39 RU.
The figure for KCSIKK [6mer-2-1166] is 26 RU; for RHSFRK [6mer-2-1130] it is 29 RU.
In the case of KCTGKR [6mer-2-1141], the Binding affinity is 32 RU.
With KDMGKR [6mer-2-1159] the figure was 40 RU; with RANWKR [6mer-2-1135], 29 RU.
The figure for RHEVRR [6mer-2-1126] is 23 RU; for RNWAKK [6mer-2-1152] it is 37 RU; for RCAPKR [6mer-2-1167] it is 27 RU.
Take KMKMKK [6mer-2-1133]: the Binding affinity was 22 RU.
The figure for KMNKKR [6mer-2-1140] is 29 RU.
With RYNHKR [6mer-2-1164] the figure was 33 RU.
The figure for KIDFRR [6mer-2-1149] is 21 RU; for RIKAKK [6mer-2-1165] it is 30 RU.
KAHFKK [6mer-2-1138] showed a Binding affinity of 42 RU.
The figure for RTNAKR [6mer-2-1131] is 26 RU; for KEKGKR [6mer-2-1148] it is 34 RU.
With RDAFKK [6mer-2-1125] the figure was 30 RU; with KMKKKR [6mer-2-1136], 36 RU; with KMNARR [6mer-2-1156], 35 RU.
Molecule KFMKKK [6mer-2-1147] displayed a Binding affinity of 35 RU.
The molecule KTDVKK [6mer-2-1150] gave a Binding affinity of 42 RU.
With KYENRK [6mer-2-1134] the figure was 30 RU; with KNCERR [6mer-2-1172], 36 RU; with RTDFKR [6mer-2-1137], 22 RU.
With RNTDRK [6mer-2-1157] the figure was 37 RU.
For RFEDRK [6mer-2-1144], the Binding affinity is 39 RU.
With RITGKR [6mer-2-1129] the figure was 42 RU; with KKAMKR [6mer-2-1142], 30 RU.
The figure for RYPVRK [6mer-2-1151] is 43 RU.
